Experimental findings from publication PMC2747274 (2009) are described below.

Common to all, as to assay: FP
The target in test [1] is fluorescently labeled histone H4 tail peptide, K20 unmodified (UniProt P62805, fluorescent label (position not given)).
Test [2] has as its target fluorescently labeled histone H3 tail peptide, dimethylated at K4 (UniProt P68431, dimethyl-lysine at K4; fluorescent label (position not given)).
The target in test [3] is fluorescently labeled histone H3 tail peptide, monomethylated at K27 (UniProt P68431, monomethyl-lysine at K27; fluorescent label (position not given)).
The target in test [4] is fluorescently labeled histone H3 tail peptide, dimethylated at K9 (UniProt P68431, dimethyl-lysine at K9; fluorescent label (position not given)).
The target of test [5] is fluorescently labeled histone H4 tail peptide, monomethylated at K20 (UniProt P62805, monomethyl-lysine at K20; fluorescent label (position not given)).
The target of test [6] is fluorescently labeled histone H3 tail peptide, monomethylated at K4 (UniProt P68431, monomethyl-lysine at K4; fluorescent label (position not given)).
Test [7] concerns the target fluorescently labeled histone H3 tail peptide, dimethylated at K27 (UniProt P68431, dimethyl-lysine at K27; fluorescent label (position not given)).
The target of test [8] is fluorescently labeled histone H4 tail peptide, trimethylated at K20 (UniProt P62805, trimethyl-lysine at K20; fluorescent label (position not given)).
Test [9] addresses fluorescently labeled histone H4 tail peptide, dimethylated at K20 (UniProt P62805, dimethyl-lysine at K20; fluorescent label (position not given)).
Test [10] has as its target fluorescently labeled histone H3 tail peptide, monomethylated at K9 (UniProt P68431, monomethyl-lysine at K9; fluorescent label (position not given)).

B1: human MBTD1 (Malignant Brain Tumor domain-containing protein 1) fragment composed of all four MBT repeats (residues 130-566) (domain or fragment)
chain: AKTKAAVSMEGFSWGNYINSNSFIAAPVTCFKHAPMGTCWGDISENVRVEVPNTDCSLPTKVFWIAGIVKLAGYNALLRYEGFENDSGLDFWCNICGSDIHPVGWCAASGKPLVPPRTIQHKYTNWKAFLVKRLTGAKTLPPDFSQKVSESMQYPFKPCMRVEVVDKRHLCRTRVAVVESVIGGRLRLVYEESEDRTDDFWCHMHSPLIHHIGWSRSIGHRFKRSDITKKQDGHFDTPPHLFAKVKEVDQSGEWFKEGMKLEAIDPLNLSTICVATIRKVLADGFLMIGIDGSEAADGSDWFCYHATSPSIFPVGFCEINMIELTPPRGYTKLPFKWFDYLRETGSIAAPVKLFNKDVPNHGFRVGMKLEAVDLMEPRLICVATVTRIIHRLLRIHFDGWEEEYDQWVDCESPDLYPVGWCQLTGYQLQPPASQSSR
B1: the equilibrium dissociation constant (Kd) (commonly a measure of binding affinity in units of concentration) in test [1] amounted to 480 µM; in [2], 145 µM; in test [3], 244 µM; in [4], 550 µM; in [5], 7 µM; in test [6] it was 126 µM. In addition, the Kd was 185 µM in [7], 680 µM in [8], 13 µM in test [9] and 152 µM in test [10].
